According to a protein production outcome set (Wang et al. 2014):

Assay: label from the status in PepcDB records

Sequence | protein production
MAAILISLIGKYGMNGIFIATFMAGIFLLLAGIFRLGNLISLIPSPVITGFTSGIAIIIASGQIKNFFGIEHFTGSFFDLMKFISGLHIDYPSTIIGLLTILLMIFYPKSWGKKFPASLLAILLSTLAVLALKLDIPLVGKIPTTLIPQAHLRLTELNPQDMKTLLIPAISITVLGMTESLLCGASAGRATNHPMDNNQELVAQGIGNIFIPFFGGIPATAAIARTSVAIKAGAQTRLTGIIHALILLLSMFLFAPFMTHIPLSALAGVLIMTAVRMNEWEAIRFLFKNKLKSGIIEFFVTMIITVIFDLSTAILAGIVVGFLLFIVKISQIEINSSQIEPERISQNHHEVFTDWTVIYISGPLFFLNSSKLKQAIDELPANTNAVLSLRGVPMIDVTSIKLLIDIYSIFHKEERQIVFASMNPKLKESFKRTGLISMVGEEAIYPSVNEFLLDLVDKNK | failed
MTFLSQLSTHADKAFLRRLFAIALPITLQSIMFSSRSLVDVLMLGQLGEAEIAAVGVAARATFVTTIMLVGVTTGGALLTAQYWGAGDKIGVRQSTSLTWMIAMVFAALAVCLFVFFPQPIMGLTTDSQEVIELGSSYLVISSASMFAVACVASMAVGLRAMHQPGLSTFFSGIGILSNVFLNWVLIFGHLGFPALGITGAAIATVISGAIEVGCLFGYLWLKKHIIAFGWGDIRASLVLDKITRFLSLSLPTTFNFLAWAGGLFAYHAIMGQAGVQGLAALSVMTPVESIALAMMIGLSNAAAVLVGNQLGAKNFEPVYYQAWATVILNVLIAFGVAVLLFFTNQLILDAFSALSAETRHLAEQFMVILALGVILRSVPMMVIVGVLRAGGDVKFCLYQDVFAQWIIGIPLAAFAAIYLGWEPQWVYLLFLTEEVVKWCICLPRMKSKKWMKNLIEK | not failed
MVAKDYPFYLTVKRANCSLEAPLGSGVAKDEEPSNKRVKPLSRVTSLANLIPPVKTTPLKRFSQTLQRSISFRSESRPDILAPRAWSRNATSSSTKRRDSKLWSETFDVCVNQVLTAKEIKRQEAIFELSQGEEDLIEDLKLAKKAYHDPMLKLSIMTEQELNQIFGTLDSLIPLHEELLSQLRDVRKPDGSTEHVGPILVGWLPCLSSYDSYCSNQVAAKALLDHKKQDHRVQDFLQRCLESPFSRKLDLWNFLDIPRSRLVKYPLLLREILRHTPNDNPDQQHLEEAINIIQGIVAEINTKTGESECRYYKERLLYLEEGQKDSLIDSSRVLCCHGELKNNRGVKLHVFLFQEVLVITRAVTHNEQLCYQLYRQPIPVKDLTLEDLQDGEVRLGGSLRGAFSNNERVKNFFRVSFKNGSQSQTHSLQANDTFNKQQWLNCIRQAKETVLSAAGQAGLLDSEGLVQGPGTENREPQGETKLEQMDQSDSESDCSMDTSEVSLECERMEQTDASCANSRPEESV | not failed
MFSLSFPSSSSALLPSLVAFDSSRRLSLQPKKLNRLQSHLFSPQHLSFSQSNVSRYRAFCVSSSSPPEGTVSVVDFHEKDWSFLESMEIDSTEHTQKIERIIKAGELSESSRVLVSISSETFVDRLVESSPSQLLLIVHDSLFTLACIKEKYDKVKCWQGEMIYVPEKWSPLDAVFLYFLPALPFDLDELFKTLSQRCSSGARVVISHPQGRLGLEQQRKEFSDVVVSDLPDESTLSNVAEKHSFELTQFVDEQGLYLAVLKSSKQ | failed
MNRIWLRAIILTASSALLAGCQFGGLNSLPLPGTAGHGEGAYSVTVEMADVATLPQNSPVMVDDVTVGSVAGIVAVQRPDGSFYAAVKLDLDKNVLLPANAVAKVSQTSLLGSLHVELAPPTDRPPTGRLVDGSRITEANTDRFPTTEEVFSALGVVVNKGNVGALEEIIDETHQAVAGRQAQFVNLVPRLAELTAGLNRQVHDIIDALDGLNRVSAILARDKDNLGRALDTLPDAVRVLNQNRDHIVDAFAALKRLTMVTSHVLAETKVDFGEDLKDLYSIVKALNDDRKDFVTSLQLLLTFPFPNFGIKQAVRGDYLNVFTTFDLTLRRIGETFFTTAYFDPNMAHMDEILNPPDFLIGELANLSGQAADPFKIPPGTASGQ | failed
MRNTILFGVSMILLANLCFGIMSAFVKITADYFSPMENVFYRSITMTLLLLLIYPFKPYRLKSYKQGGFKKLAFRVVVGGLAMLAFFYNIEKISLATATAFSQCAPIYTVLLSPLLLKEKLKRSTLISACIGIVGVVLISDPSVENVGPVEIFMGILSGIFVSLAYITLRDLREYYDKQAVILAFAFGMSLLGLVGMFIDIPFLSTGIHVPRKEDILWISLIGISGTLGQYFLTYAYMNAPAGIIAPIEYTRIVWGLLFGLYLGDTFLDLKSSLGVALILCSGLLIALPALLKELKKI | failed
MGALAAAMFDLRSRRENPGPESDPRKGRDRQRPSDARETKEDLKSQPDLRQVKEKVRNDEIAIQSESLVEYKERNQRRDDVLQVPELYDVLLPKLRVRIVFGSSFKPRKSTGRQWSMTQSWLKIKMNTNENEV | failed
